According to the supplement of paper PMC11780869:

Tested on: Bacillus subtilis
Test: cleaved RNA product abundance (RNA/gDNA barcode ratio) relative to median wild-type variant (ratio to wild type); higher = more accumulation of the downstream cleavage product
Details: cleavage site: cggR-gapA (positions -7 to +36 mutated)
How it was run: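 Truncated aprE or tetM reporter mRNAs with barcoded RNase Y cleavage-site windows, mutagenized from oligos at a 9% error rate, sat in the B. subtilis chromosome. Cells grew in LB at 37°C from OD600 0.0003 to 0.3. Gel-selected cleaved RNA was reverse transcribed and its barcodes sequenced with those from genomic DNA, collapsing by UMI. Cleaved product abundance equals the RNA:gDNA barcode ratio per construct over the median construct with the unmutated site.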

[1] = experiment (reporter, strain, medium): exp 2b: truncated aprE reporter, strain BJT200
[2] = experiment (reporter, strain, medium): exp 4a: truncated aprE reporter, strain BJT201 with 2% xylose (RNase J1 expressed)
[3] = experiment (reporter, strain, medium): exp 6: tetM reporter, strain 168

Row | Sequence | cleaved RNA product abundance [1] | cleaved RNA product abundance [2] | cleaved RNA product abundance [3]
1 | ACAGACGAAGGAGCCGCAAAGAAGTTATTAAGAGATGAATAATCCCTAAATATAAATATCTCTCACTTATTTAAA | 0.141 | 0.158 | 0.179
2 | ACAGACGAAGGAGCCGCAAAGAAGTTATTAAGAGATGAATAATCCCTCAAAATAAATATCTCTCACTTATTTAAA | 0.101 | 0.106 | 
3 | ACAGACGAAGGAGCCGCAAAGAAGTTATTAAGAGATGAATAATCCCTCAACATAAATATCTCTCACTTATTTAAA | 0.111 | 0.132 | 
4 | ACAGACGAAGGAGCCGCAAAGAAGTTATTAAGAGATGAATAATCCCTCAAGATAAATATCTCTCACTTATTTAAA |  | 0.112 | 
5 | ACAGACGAAGGAGCCGCAAAGAAGTTATTAAGAGATGAATAATCCCTCAATAAAAATATCTCTCACTTATTTAAA |  | 0.113 | 
6 | ACAGACGAAGGAGCCGCAAAGAAGTTATTAAGAGATGAATAATCCCTCAATATAAAAATCTCTCACTTATTTAAA | 0.103 | 0.181 | 
7 | ACAGACGAAGGAGCCGCAAAGAAGTTATTAAGAGATGAATAATCCCTCAATATAAAGATCTCTCACTTATTTAAA |  | 0.186 | 
8 | ACAGACGAAGGAGCCGCAAAGAAGTTATTAAGAGATGAATAATCCCTCAATATAAATACCTCTCACTTATTTAAA |  | 0.126 | 
9 | ACAGACGAAGGAGCCGCAAAGAAGTTATTAAGAGATGAATAATCCCTCAATATAAATAGCTCTCACTTATTTAAA |  | 0.106 | 
10 | ACAGACGAAGGAGCCGCAAAGAAGTTATTAAGAGATGAATAATCCCTCAATATAAATATATCTCACTTATTTAAA |  | 0.193 | 
11 | ACAGACGAAGGAGCCGCAAAGAAGTTATTAAGAGATGAATAATCCCTCAATATAAATATCTCTCACTATTTAAAG |  | 0.151 | 
12 | ACAGACGAAGGAGCCGCAAAGAAGTTATTAAGAGATGAATAATCCCTCAATATAAATATCTCTCACTTATTTAAA | 0.111 | 0.147 | 0.135
13 | ACAGACGAAGGAGCCGCAAAGAAGTTATTAAGAGATGAATAATCCCTCAATATAAATGTCTCTCACTTATTTAAA |  | 0.0916 | 
14 | ACAGACGAAGGAGCCGCAAAGAAGTTATTAAGAGATGAATAATCCCTCAATATAAATTTCTCTCACTTATTTAAA |  | 0.164 | 
15 | ACAGACGAAGGAGCCGCAAAGAAGTTATTAAGAGATGAATAATCCCTCAATATAACTATCTCTCACTTATTTAAA |  | 0.0935 | 
16 | ACAGACGAAGGAGCCGCAAAGAAGTTATTAAGAGATGAATAATCCCTCAATATAATTATCTCTCACTTATTTAAA |  | 0.118 | 
17 | ACAGACGAAGGAGCCGCAAAGAAGTTATTAAGAGATGAATAATCCCTCAATATACATATCTCTCACTTATTTAAA | 0.102 | 0.136 | 
18 | ACAGACGAAGGAGCCGCAAAGAAGTTATTAAGAGATGAATAATCCCTCAATATAGATATCTCTCACTTATTTAAA |  | 0.147 | 
19 | ACAGACGAAGGAGCCGCAAAGAAGTTATTAAGAGATGAATAATCCCTCAATATATATATCTCTCACTTATTTAAA | 0.129 | 0.14 | 
20 | ACAGACGAAGGAGCCGCAAAGAAGTTATTAAGAGATGAATAATCCCTCAATCTAAATATCTCTCACTTATTTAAA |  | 0.0377 | 
21 | ACAGACGAAGGAGCCGCAAAGAAGTTATTAAGAGATGAATAATCCCTCAATGTAAATATCTCTCACTTATTTAAA | 0.0969 | 0.0609 | 
22 | ACAGACGAAGGAGCCGCAAAGAAGTTATTAAGAGATGAATAATCCCTCAATTTAAATATCTCTCACTTATTTAAA | 0.0971 | 0.0573 | 
23 | ACAGACGAAGGAGCCGCAAAGAAGTTATTAAGAGATGAATAATCCCTCACTATAAATATCTCTCACTTATTTAAA |  | 0.131 | 
24 | ACAGACGAAGGAGCCGCAAAGAAGTTATTAAGAGATGAATAATCCCTCATTATAAATATCTCTCACTTATTTAAA |  | 0.177 | 
25 | ACAGACGAAGGAGCCGCAAAGAAGTTATTAAGAGATGAATAATCCCTCCATATAAATATCTCTCACTTATTTAAA | 0.0792 |  | 
26 | ACAGACGAAGGAGCCGCAAAGAAGTTATTAAGAGATGAATAATCCCTCGATATAAATATCTCTCACTTATTTAAA |  | 0.0848 | 
27 | ACAGACGAAGGAGCCGCAAAGAAGTTATTAAGAGATGAATAATCCCTCTATATAAATATCTCTCACTTATTTAAA |  | 0.118 | 

Row | Sequence | cleaved RNA product abundance [1] | cleaved RNA product abundance [2] | cleaved RNA product abundance [3]
28 | ACAGACGAAGGAGCCGCAAAGAAGTTATTAAGAGATGAATAATCCCTGAATATAAATATCTCTCACTTATTTAAA |  | 0.0805 | 
29 | ACAGACGAAGGAGCCGCAAAGAAGTTATTAAGAGATGAATAATCCCTTAATATAAATATCTCTCACTTATTTAAA | 0.727 | 0.431 | 
30 | ACAGACGAAGGAGCCGCAAAGAAGTTATTAAGAGATGAATAATCCGTCAATATAAATATCTCTCACTTATTTAAA | 0.0978 | 0.0917 | 
31 | ACAGACGAAGGAGCCGCAAAGAAGTTATTAAGAGATGAATAATCCTTCAATATAAATATCTCTCACTTATTTAAA | 0.105 | 0.211 | 
32 | ACAGACGAAGGAGCCGCAAAGAAGTTATTAAGAGATGAATAATCGCTCAATATAAATATCTCTCACTTATTTAAA |  | 0.0997 | 
33 | ACAGACGAAGGAGCCGCAAAGAAGTTATTAAGAGATGAATAATCTCTCAATATAAATATCTCTCACTTATTTAAA | 0.718 | 0.924 | 
34 | ACAGACGAAGGAGCCGCAAAGAAGTTATTAAGAGATGAATAATGCCTCAATATAAATATCTCTCACTTATTTAAA |  | 0.1 | 
35 | ACAGACGAAGGAGCCGCAAAGAAGTTATTAAGAGATGAATAATTCCTCAATATAAATATCTCTCACTTATTTAAA | 0.0877 | 0.106 | 
36 | ACAGACGAAGGAGCCGCAAAGAAGTTATTAAGAGATGAATACTCCCTCAATATAAATATCTCTCACTTATTTAAA |  | 0.0945 | 
37 | ACAGACGAAGGAGCCGCAAAGAAGTTATTAAGAGATGAATAGTCCCTCAATATAAATATCTCTCACTTATTTAAA | 0.0992 | 0.136 | 
38 | ACAGACGAAGGAGCCGCAAAGAAGTTATTAAGAGATGAATATTCCCTCAATATAAATATCTCTCACTTATTTAAA |  | 0.0954 | 
39 | ACAGACGAAGGAGCCGCAAAGAAGTTATTAAGAGATGAATCATCCCTCAATATAAATATCTCTCACTTATTTAAA |  | 0.139 | 
40 | ACAGACGAAGGAGCCGCAAAGAAGTTATTAAGAGATGAATGATCCCTCAATATAAATATCTCTCACTTATTTAAA |  | 0.0837 | 
41 | ACAGACGAAGGAGCCGCAAAGAAGTTATTAAGAGATGAATTATCCCTCAATATAAATATCTCTCACTTATTTAAA | 0.102 | 0.183 | 
42 | ACAGACGAAGGAGCCGCAAAGAAGTTATTAAGAGATGACTAATCCCTCAATATAAATATCTCTCACTTATTTAAA | 0.082 | 0.0924 | 
43 | ACAGACGAAGGAGCCGCAAAGAAGTTATTAAGAGATGAGTAATCCCTCAATATAAATATCTCTCACTTATTTAAA |  | 0.241 | 
44 | ACAGACGAAGGAGCCGCAAAGAAGTTATTAAGAGATGATTAATCCCTCAATATAAATATCTCTCACTTATTTAAA |  | 0.173 | 
45 | ACAGACGAAGGAGCCGCAAAGAAGTTATTAAGAGATGCATAATCCCTCAATATAAATATCTCTCACTTATTTAAA | 0.117 | 0.158 | 
46 | ACAGACGAAGGAGCCGCAAAGAAGTTATTAAGAGATGTATAATCCCTCAATATAAATATCTCTCACTTATTTAAA |  | 0.229 | 
47 | ACAGACGAAGGAGCCGCAAAGAAGTTATTAAGAGATTAATAATCCCTCAATATAAATATCTCTCACTTATTTAAA | 0.116 | 0.115 | 
48 | ACAGACGAAGGAGCCGCAAAGAAGTTATTAAGAGCTGAATAATCCCTCAATATAAATATCTCTCACTTATTTAAA | 0.0922 |  | 
49 | ACAGACGAAGGAGCCGCAAAGAAGTTATTAAGAGGTGAATAATCCCTCAATATAAATATCTCTCACTTATTTAAA |  | 0.253 | 
50 | ACAGACGAAGGAGCCGCAAAGAAGTTATTAAGAGTTGAATAATCCCTCAATATAAATATCTCTCACTTATTTAAA |  | 0.0897 | 
51 | ACAGACGAAGGAGCCGCAAAGAAGTTATTAAGATATGAATAATCCCTAAATATAAATATCTCTCACTTATTTAAA |  | 0.101 | 
52 | ACAGACGAAGGAGCCGCAAAGAAGTTATTAAGATATGAATAATCCCTCAATATAAATATCTCTCACTTATTTAAA | 0.0758 | 0.115 | 
53 | ACAGACGAAGGAGCCGCAAAGAAGTTATTAAGCAATGAATAATCCCTCAATATAAATATCTCTCACTTATTTAAA | 0.0903 | 0.122 | 
